The source of these data is publication PMC10259489, “Identification of epigenetic modulators as determinants of nuclear size and shape” (eLife, 2023).

Experiment [1] addresses T1, GST-lamin A (aa 389–646), entire Ig-fold and C-terminus (human, UniProt P02545 389-646).
T1 construct: pGEX4T1 construct; also called full-length lamin A tail; source: E. coli Rosetta 2, purified (glutathione Sepharose 4B); not shown: GST, N-terminal, kept
T1 sequence (looked up): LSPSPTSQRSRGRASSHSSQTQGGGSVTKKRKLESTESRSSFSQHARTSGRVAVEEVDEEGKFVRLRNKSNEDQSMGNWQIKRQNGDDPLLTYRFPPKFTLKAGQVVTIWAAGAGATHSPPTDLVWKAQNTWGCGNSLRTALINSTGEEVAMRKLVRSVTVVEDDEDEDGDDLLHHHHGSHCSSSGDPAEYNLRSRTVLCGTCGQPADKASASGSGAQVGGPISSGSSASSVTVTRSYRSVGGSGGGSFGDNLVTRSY
Put plainly: pull-down; calf thymus histone pull-down with GST-lamin A (wild type or C522A) and GST-lamin C (389–572) co-incubated, with or without DTT. Conditions: both partners purified.

Experiment [2] concerns the target T2, histone H3R8me2/K9me2 peptide (R8me2, K9me2).
T2 chain: ARTKQTARKSTGGKAPRKQ
The experiment is described as follows: peptide or protein array; MODified histone peptide array (Active Motif, 384 peptides spotted); 10 nM purified GST-lamin A (pACS37) in 100 mM KCl, 20 mM HEPES pH 7.5, 1 mM EDTA, 0.1 mM DTT, 10% glycerol, room temperature 1 hr; detected with anti-GST and HRP secondary, ECL. The following applies: both partners purified.

B1: GST-lamin C (aa 389–572), C-terminal region of lamin C (domain or fragment, human, UniProt P02545-2 389-572, looked up)
chain: LSPSPTSQRSRGRASSHSSQTQGGGSVTKKRKLESTESRSSFSQHARTSGRVAVEEVDEEGKFVRLRNKSNEDQSMGNWQIKRQNGDDPLLTYRFPPKFTLKAGQVVTIWAAGAGATHSPPTDLVWKAQNTWGCGNSLRTALINSTGEEVAMRKLVRSVTVVEDDEDEDGDDLLHHHHVSGSRR
notes: pGEX4T1 construct; source: E. coli Rosetta 2, purified (glutathione Sepharose 4B); not shown: GST, N-terminal, kept
As for B1, the binding result in experiment [1] is “binds”.

B2: GST-lamin A (506–646) (domain or fragment, human, UniProt P02545 506-646, looked up)
chain: HSPPTDLVWKAQNTWGCGNSLRTALINSTGEEVAMRKLVRSVTVVEDDEDEDGDDLLHHHHGSHCSSSGDPAEYNLRSRTVLCGTCGQPADKASASGSGAQVGGPISSGSSASSVTVTRSYRSVGGSGGGSFGDNLVTRSY
notes: detected by anti-GST; also called GST-lamin A (pACS37); source: E. coli Rosetta 2, purified (glutathione Sepharose 4B); not shown: GST, N-terminal, kept
For the molecule B2, the “fold signal against H3K9me2” value in experiment [2] was roughly 5 fold.
